Measured values: patent US10920254B2, “Methods and materials for producing 5 and 7-carbon monomers” (INVISTA North America S.á.r.l., priority 2015, dated 2021)

Assay: coupled assay of 5-hydroxyvalerate CoA transferase and thiolase, LC-MS detection of acyl-CoAs
Format: biochemical
Conditions: 1 mM acetyl-CoA, 1 mM 5-hydroxyvalerate, pH 6.8, 30° C.; no analytical standards, ions of expected molecular weight
Experimental: For each culture, expression plasmids were freshly transformed into BL21(DE3) (Agilent). Colonies from fresh agar plates were used to inoculate 20 ml LB in 250 ml flask overnight pre-culture. For all constructs except 237, ampicillin was used, for 237 kanamycin was required. After incubation overnight at 37° C. and 200 rpm, pre-cultures were used to inoculate (1:100) larger cultures, 350 ml LB, with respective antibiotic in […]. After 2.5 h of shaking with 200 rpm at 37° C., cultures reached OD600 in the range 0.5-0.7 at which point they were induced with 1 mM IPTG and the temperature of the culture was changed to 25° C. Incubation continued overnight. Cells were harvested the next day and stored at −20° C. until protein purification was performed.
To purify an overexpressed protein, a bacterial pellet from a 350 ml culture was resuspended in up to total 20 ml of Binding Buffer (20 mM Sodium phosphate pH 7.4, 500 mM Sodium chloride, 20 mM imidazole, 5% glycerol) and sonicated for 2 min with a microtip (amplitude 50%, 1 s pulse ON, 2 s OFF). Cell suspension was centrifuged with 20,000 G for 30 min at 4° C. As all the tested proteins were His-tagged, the purification with Immobilized Metal Affinity Chromatography was sufficient to ensure both necessary purity and amount for the enzymatic assays. […]

B1: BDIGENE #246: Clostridium viride 5-hydroxyvalerate CoA transferase (protein)
chain: MAQFVTAQEAVKHIPNGSRVVLAHSTGEPRTLVKAMVENYEQYKDVEVCHMLGLGPYEYTNPEMKGHLWHNSLFMGPGGRKAFNENRLDFTPGYFCDSIKFFREGYLPVDVLMMTVSPPDKHGYVTCGITCDFTMPAFECAKMVIVQVNKNMPRTFGQTAIHLDDIDFAVEADDPLYGSVPGELTDIDRKIGEHCASLINDGACLQLGIGGIPNAVLTYLTEKNDMGIHSEMLSDGILQLIKAGNINNSKKQIHVGKSAVTFLNGSQELYDYVDDNPSVEFYPVDYINDPYVIGKNDNMVSVNSALSVDLMGQIVADNLSATRQISGAGGFVDFVRGATISKGGISIVAMPSTAAGGKASRIEMMFDAGRPITLTRFESFYVVTEYGIAKMRGNSLRTRARQLIEIAHPDFRDEMKEFYEKRFGEKY
modifications: Clostridium viride
notes: Clostridium viride 5-hydroxyvalerate CoA transferase
Question: Which “intermediate product 5-hydroxyvaleryl-CoA by LC-MS” value does the source give for B1 here?
Answer: detected in all samples containing both substrates and BDIGENE #246
